Measurements published in US20190076505A1 (TORAY INDUSTRIES, published 2019).

Target: HLA-DRB1*04 molecules (human)
Test: cell-based or functional assay

IFN-γ production (ELISA) by CD4-positive T cells against peptide-pulsed PBMCs expressing HLA-DRB1*04	Binder
≥ 1000 pg/mL	WGVFYYFVSALGITAGAH [polypeptide consisting of the amino acid sequence represented by SEQ ID NO: 38]
≥ 1000 pg/mL	TAGAHRLWSHRSYKARLPLR [polypeptide consisting of the amino acid sequence represented by SEQ ID NO: 39]
≥ 1000 pg/mL	ASEYRWHINFTT [polypeptide consisting of the amino acid sequence represented by SEQ ID NO: 45]
≥ 1000 pg/mL	VEYVWRNIILMSLLHLGALYGITL [polypeptide consisting of the amino acid sequence represented by SEQ ID NO: 37]
≥ 1000 pg/mL	AEKLVMFQRRYYKPGLL [polypeptide consisting of the amino acid sequence represented by SEQ ID NO: 43]
≥ 1000 pg/mL	HVGWLLVRKHPAVKE [polypeptide consisting of the amino acid sequence represented by SEQ ID NO: 42]
≥ 1000 pg/mL	HRSYKARLPLRLFLI [polypeptide consisting of the amino acid sequence represented by SEQ ID NO: 40]
≥ 1000 pg/mL	PLRLFLIIANTMAFQN [polypeptide consisting of the amino acid sequence represented by SEQ ID NO: 41]
≥ 1000 pg/mL	NATWLVNSAAHLFGYR [polypeptide consisting of the amino acid sequence represented by SEQ ID NO: 44]
